From patent publication US20210388083A1

What was measured:
[1] = molecular target: histidine-tagged human FcγRIIIa-158V (human) (UniProt P08637); experiment: BLI (Octet Red384); His-tagged receptor on anti-Penta-HIS biosensor; antibody 15.6-500 nM, PBS pH 7.2; global 1:1 fit
[2] = molecular target: histidine-tagged mouse FcγRIV (mouse); experiment: BLI (Octet Red384); His-tagged receptor on anti-Penta-HIS biosensor; antibody 125-4000 nM, PBS pH 7.2; global 1:1 fit
[3] = molecular target: histidine-tagged human FcγRIIIa-158F (human) (UniProt P08637); experiment: as above
[4] = molecular target: histidine-tagged human FcγRIIIa-158V (human) (UniProt P08637); experiment: as above
[5] = molecular target: histidine-tagged mouse FcγRIV (mouse); experiment: BLI (Octet Red384); His-tagged receptor (row moFcγRIV) on anti-Penta-HIS biosensor; antibody 125-4000 nM, PBS pH 7.2; global 1:1 fit
[6] = molecular target: histidine-tagged human FcγRIIIa-158F (human) (UniProt P08637); experiment: BLI (Octet Red384); His-tagged receptor (row FcγRIIIA (F158)) on anti-Penta-HIS biosensor; antibody 125-4000 nM, PBS pH 7.2; global 1:1 fit
[7] = molecular target: histidine-tagged mouse FcRn (mouse) (UniProt Q61559); experiment: BLI (Octet Red384); His-tagged receptor on anti-Penta-HIS biosensor; antibody 75-1000 nM, PBS pH 5.8; global 1:1 fit
[8] = molecular target: histidine-tagged human FcRn (human) (UniProt P55899); experiment: as above
[9] = molecular target: histidine-tagged human FcRn (human) (UniProt P55899); experiment: BLI (Octet Red384); His-tagged receptor (row FcRn) on anti-Penta-HIS biosensor; antibody 75-1000 nM, PBS pH 5.8; global 1:1 fit
[10] = molecular target: histidine-tagged human FcγRIIIa-158V (human) (UniProt P08637); experiment: BLI (Octet Red384); His-tagged receptor (row FcγRIIIA (V158)) on anti-Penta-HIS biosensor; antibody 125-4000 nM, PBS pH 7.2; global 1:1 fit
[11] = molecular target: histidine-tagged mouse FcRn (mouse) (UniProt Q61559); experiment: BLI (Octet Red384); His-tagged receptor (row moFcRn) on anti-Penta-HIS biosensor; antibody 75-1000 nM, PBS pH 5.8; global 1:1 fit

Row | Kd [1] | koff [1] | kon [1] | Kd [2] | Kd [3] | Kd [4] | Kd [5] | Kd [6] | Kd [7] | Kd [8] | Kd [9] | Kd [10] | Kd [11] | Substance
1 | 115 nM | 0.017 s⁻¹ | 150000 M⁻¹ s⁻¹ | – | – | – | – | – | – | – | – | – | – | antigen-binding molecule specific for HER3 comprising GASD Fc, human IgG1 (G1m3 allotype) (antibody)
2 | 24 nM | 0.0052 s⁻¹ | 220000 M⁻¹ s⁻¹ | – | – | – | – | – | – | – | – | – | – | antigen-binding molecule specific for HER3 comprising GASDALIE Fc, human IgG1 (G1m3 allotype) (antibody)
3 | 317 nM | – | – | 544 nM | 2230 nM | 661 nM | 544 nM | 2230 nM | 15.1 nM | 33.7 nM | 33.7 nM | 661 nM | 15.1 nM | antigen-binding molecule specific for HER3 comprising Wildtype (WT) Fc, human IgG1 (G1m3 allotype) (antibody)
4 | 35 nM | 0.0072 s⁻¹ | 200000 M⁻¹ s⁻¹ | – | – | – | – | – | – | – | – | – | – | antigen-binding molecule specific for HER3 comprising GASDIE Fc, human IgG1 (G1m3 allotype) (antibody)
